# Laboratory results reported in patent US20230107034A1 (BRIGHAM AND WOMEN S HOSPITAL, published 2023).
# Where “and” joins values, the source holds several entries; their conditions need not be identical. Equal entries are not always repeated.
# B1: rC11 (recombinant C11, human IgG1 LALA) (antibody, V domains shown)
# VH: QVQLQESGPGLVKPSETLSLTCTVSGGSISSYYWSWIRQPPGKGLEWIGSIYYSGTTKYNPSLKSRVTISVGTSKNQFSLKLNSVTAADTAVYYCARDNWGSRFDYWGQGTLVTVSS
# VL: DIQMTQSPSSLSASVGDRVTITCRASQGIRNDLGWYQQKPGKAPTLLIYAASSLQSGVPSRFSGSGSGTDFTLTISSLQPEDFATYYCLQDFNYPYTFGQGTKLEIKR
# B2: C11 (hybridoma-purified mAb) (antibody, V domains shown)
# VH: B1 VH
# VL: DIQMTQSPSSLSASVGDRVTITCRASQGIRNDLGWYQQKPGKAPTLLIYAASSLQSGVPSRFSGSGSGTDFTLTISSLQPEDFATYYCLQDFNYPYTFGQGTKLEIK
# notes: Purified from a Trianni mouse hybridoma (FusC); also called purified clone C11
# B3: C10 (hybridoma-purified mAb) (antibody, V domains shown)
# VH: B1 VH
# VL: B2 VL
# notes: also called purified clone C10
# B4: rB28 (recombinant B28, human IgG1 LALA) (antibody, V domains shown)
# VH: QVQLVESGGGVVQPGRSVRLSCAATGFTFSSYGMHWVRQAPGKGLEWVAVIWFDGSNEYYADSVRGRFTISRDNSKNTLYLQMNSLRAEDTAVYYCARRGRVGVTRNYYYYNMDVWGQGTTVTVSS
# VL: AIQMTQSPSSLSASVGDRVTITCRASQGIRNDLGWFQQKPGKAPKLLIYPASSLQSGVPSRFSGSGSDTDFTLTISSLQPEDFATYYCLQDYNFPFTFGPGTKVDIKR
# B5: B75 (hybridoma-purified mAb) (antibody, V domains shown)
# VH: QVQLVESGGGVVQPGRSLRLSCAASGFTFSSYGMHWVRQAPGKGLEWVAVIWYDGSYKYYADSVKGRFTISRDNSKNTLYLQMNSLRVEDTAVYYCAREGRTYYDFLTGYFDFWGQGTLVTVSS
# VL: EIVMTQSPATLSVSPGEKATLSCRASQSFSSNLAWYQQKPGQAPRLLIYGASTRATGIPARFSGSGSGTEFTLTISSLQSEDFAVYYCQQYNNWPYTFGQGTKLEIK
# B6: rB75 (recombinant B75, human IgG1 LALA) (antibody, V domains shown)
# VH: B5 VH
# VL: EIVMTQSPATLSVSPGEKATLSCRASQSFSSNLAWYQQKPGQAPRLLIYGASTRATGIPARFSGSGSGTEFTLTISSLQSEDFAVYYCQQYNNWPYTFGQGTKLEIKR
# B7: rB73 (recombinant B73, human IgG1 LALA) (antibody, V domains shown)
# VH: QLQLQMSGPGLVKPSETLSLTCTVSGGSISSSSYYWGWIRQSPGKGLEWIGSIYYSGRTYYNPSLKSRVTISVDTSKNQFSLKLSSVTAADTAMYYCARRSSGRPYYWGQGTLVTVSS
# VL: QAVVTQESALTTSPGGTVILTCRSSTGAVTTSNYANWVQEKPDHLFTGLIGETNNRAPGVPVRFSGSLIGDKAALTITGAQTEDDAMYFCALWYSTHWVFGGGTKLTVLG
# B8: rB24 (recombinant B24, human IgG1 LALA) (antibody, V domains shown)
# VH: EVQLLESGGGLVQPGGSLRLSCAASGFTFSSYAMTWVRQAPGEGLEWVSTISGSGIRTYYADSVKGRFTISRDNSKNTMYLQMNSLRAEDTAVYYCAKDGLTGDRRWYFDLWGRGTLVTVSS
# VL: EIVMTQSPATLSLSPGERATLSCRASQSVSSSYFSWYQQKPGQAPRLLIYGASTRATGIPARFSGSGSGTDFTLTISSLQPEDFAVYYCQQDSNLPLTFGGGTKVEIKR
# How the values were obtained:
# [1] = biological target: soluble synaptotoxic Aβ in aqueous human AD brain extract (human, UniProt P05067 18-701); test: cell-based or functional assay
# Chain of soluble synaptotoxic Aβ in aqueous human AD brain extract (P05067 18-701): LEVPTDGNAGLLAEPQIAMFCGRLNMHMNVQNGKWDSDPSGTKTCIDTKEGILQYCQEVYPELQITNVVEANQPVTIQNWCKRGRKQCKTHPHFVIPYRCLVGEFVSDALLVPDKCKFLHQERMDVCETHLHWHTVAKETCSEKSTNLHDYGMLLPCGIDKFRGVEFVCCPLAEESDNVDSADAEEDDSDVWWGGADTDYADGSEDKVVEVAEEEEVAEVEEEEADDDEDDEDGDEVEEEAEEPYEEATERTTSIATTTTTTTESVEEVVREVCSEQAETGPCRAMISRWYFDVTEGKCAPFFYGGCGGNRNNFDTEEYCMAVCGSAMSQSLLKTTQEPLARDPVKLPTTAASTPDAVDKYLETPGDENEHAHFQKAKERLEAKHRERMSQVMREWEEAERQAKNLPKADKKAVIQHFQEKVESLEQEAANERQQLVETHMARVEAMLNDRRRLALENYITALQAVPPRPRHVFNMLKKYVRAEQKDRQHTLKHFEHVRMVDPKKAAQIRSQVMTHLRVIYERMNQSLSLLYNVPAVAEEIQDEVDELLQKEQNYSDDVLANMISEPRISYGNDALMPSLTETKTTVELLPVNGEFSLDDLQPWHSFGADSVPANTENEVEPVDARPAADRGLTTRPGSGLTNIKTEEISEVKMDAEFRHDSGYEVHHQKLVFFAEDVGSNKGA
# [2] = biological target: T1, synthetic Aβ protofibrils (Aβ1-42-derived protofibrils) (UniProt P05067 672-713); test: binding profile column of Table 5
# T1 construct: domain: Aβ1-42; Multimeric assembly; also called PF; PFs
# T1 sequence (P05067 672-713 limits assumed): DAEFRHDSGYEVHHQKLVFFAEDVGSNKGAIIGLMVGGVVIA
# [3] = biological target: T2, synthetic Aβ-derived diffusible ligands (ADDLs) (UniProt P05067 672-713); test: binding profile column of Table 5
# T2 construct: domain: Aβ1-42; Oligomeric assembly; also called synthetic Aβ oligomers
# T2 sequence (P05067 672-713 limits assumed): as above
# [4] = biological target: T3, monomeric Aβ (UniProt P05067 672-713); test: binding profile column of Table 5
# T3 construct: also called Aβ monomer; Aβ1-40 monomer and/or Aβ1-42 monomer
# T3 sequence (P05067 672-713): as the sequence (P05067 672-713 limits assumed) above
binder,measurement,setting,value
B1,"EC50 of neuritotoxicity protection, iN cellular assay, Mean",[1],2.79 µg/mL
same,"EC50 of neuritotoxicity protection, iN cellular assay, Run16",[1],3.58 µg/mL and 2.19 µg/mL
same,"EC50 of neuritotoxicity protection, iN cellular assay, Run17",[1],2.58 µg/mL
B2,binding result,[2],no binding
same,binding result,[3],no binding
same,binding result,[4],no binding
B3,binding result,[2],no binding
same,binding result,[3],no binding
same,binding result,[4],no binding
B4,"EC50 of neuritotoxicity protection, iN cellular assay, Mean",[1],1.53 µg/mL
same,"EC50 of neuritotoxicity protection, iN cellular assay, Run11",[1],1.76 µg/mL
same,"EC50 of neuritotoxicity protection, iN cellular assay, Run12",[1],1.34 µg/mL
same,"EC50 of neuritotoxicity protection, iN cellular assay, Run13",[1],1.5 µg/mL
B5,"EC50 of neuritotoxicity protection, iN cellular assay, Mean",[1],2.05 µg/mL
same,"EC50 of neuritotoxicity protection, iN cellular assay, Run13",[1],2.05 µg/mL
B6,"EC50 of neuritotoxicity protection, iN cellular assay, Mean",[1],4.08 µg/mL
same,"EC50 of neuritotoxicity protection, iN cellular assay, Run15",[1],2.11 µg/mL
same,"EC50 of neuritotoxicity protection, iN cellular assay, Run16",[1],6.04 µg/mL
B7,"EC50 of neuritotoxicity protection, iN cellular assay, Mean",[1],1.94 µg/mL
same,"EC50 of neuritotoxicity protection, iN cellular assay, Run10",[1],1.98 µg/mL
same,"EC50 of neuritotoxicity protection, iN cellular assay, Run11",[1],1.97 µg/mL
same,"EC50 of neuritotoxicity protection, iN cellular assay, Run12",[1],1.49 µg/mL
same,"EC50 of neuritotoxicity protection, iN cellular assay, Run14",[1],2.32 µg/mL
B8,"EC50 of neuritotoxicity protection, iN cellular assay, Mean",[1],3.97 µg/mL
same,"EC50 of neuritotoxicity protection, iN cellular assay, Run15",[1],2.53 µg/mL
same,"EC50 of neuritotoxicity protection, iN cellular assay, Run17",[1],5.4 µg/mL
